The text below walks through data of patent publication US7521540B2, “CYR61 compositions and methods” (Munin Corporation, priority 1996, dated 2009).

Assay [1] concerns 1064SK primary human foreskin fibroblasts. As to the kind of experiment: Fibroblast adhesion assay (methylene blue, A620). Type of assay: cell-based. Conditions: protein coated on wells. As to the method: The ability of Cyr61 to mediate cell adhesion in normal fibroblasts was investigated. Microtiter wells were coated with purified recombinant Cyr61 protein, and 1064SK primary human foreskin fibroblasts were allowed to adhere under serum-free conditions. […] 50 μl cell suspensions were plated on microtiter wells coated with varying concentrations (0.5-5.0 μg/ml) of Cyr61 protein. After incubation at 37° C. for 30 minutes, adherent cells were fixed and stained with methylene blue.
In another experiment, microtiter wells were coated with either BSA, Cyr61 (2 μg/ml), or vitronectin (VN; 0.5 μg/ml) and blocked with affinity-purified anti-Cyr61 antibodies for one hour at 37° C. before 1064SK cells were plated.
The effects of divalent cations in cell adhesion to Cyr61 was also investigated. […] Data are means from triplicate determinations. […] Inhibition by Ca^2+ is characteristic of adhesion through some members of the β1 family of integrins, including receptors that bind type I collagen, laminin, and vitronectin (integrins α2β1, α6β1, and αVβ1) in fibroblasts, as well as the lymphocyte-specific integrin αLβ2.
The effects of RGD peptides on Cyr61-mediated fibroblast binding was tested by plating cells in wells coated with Cyr61 (2 μg/ml). Type I collagen (2 μg/ml) or vitronectin (0.5 μg/ml), 2 mM GRGDSP or GRGESP peptide was then added.
Cells were also pre-incubated with 40 μg/ml monoclonal antibodies against the integrin α5 or the integrin αV subunits at room temperature for 30 minutes, then plated on wells coated with Cyr61 (2 μg/ml), vitronectin (0.5 μg/ml) or fibronectin (FN, 1 μg/ml). […] The data are means, representative of three experiments.
The 1064 SK cells were also analyzed using the monoclonal antibody JBIA, which binds the β1 integrin subunit. Cells were pre-incubated with the antibody (50 μg/ml) before plating on microtiter wells coated with Cyr61 (2 μg/ml), Type I collagen (2 μg/ml), or vitronectin (0.5 μg/ml). […] Data are means, representative of three experiments.
To identify the specific β1 integrin that mediates fibroblast adhesion to Cyr61, the inhibitory effects of function-blocking monoclonal antibodies were tested against various integrin α subunits. […] The data are means, representative of at least three experiments.

The next assay concerns HUVE cells. As to the kind of experiment: HUVE cell adhesion to wild-type and double-mutant Cyr61. Type of assay: cell-based, human. As to the method:
Immobilized cells were stained with methylene blue and absorbances (A620) were recorded. relative binding capacities (binding of cells not exposed to a pre-incubation compound defined as 100%) are presented in Table III.

The nature of assay [2]: Heparin binding assay (salt elution from heparin-Sepharose/agarose).
In assay [3] the test system is primary human foreskin fibroblasts. As to the kind of experiment: Cyr61-regulated gene expression (multi-gene blot, Northern). Type of assay: cell-based. As to the method: Purified, soluble, recombinant Cyr61 protein was added to cultures of primary human foreskin fibroblasts for 24 hours. From these cells, mRNA was isolated for preparation of probes to hybridize to a multi-gene blot (Clontech Atlas Human Array 1.2 cat no. 7850-1) containing about 650 genes. The levels of expression of these genes in Cyr61-treated cells were compared to that of control cells. […] These findings have been confirmed by Northern blot analysis showing increases or decreases of the mRNAs in question in Cyr61-treated cells. A time course of expression changes has been established. In particular, by 6 hours after its addition, Cyr61 has induced expression of VEGF-A mRNA and the induction is still evident at 12 and 24 hours post-addition. Also at 12 and 24 hours post-addition, Cyr61 has induced expression of VEGF-A polypeptide. With respect to VEGF-C, induction of mRNA is clearly evident 12 hours after addition of Cyr61 and the induction persists at least through 24 hours post-addition. Cyr61 is expected to induce the expression of VEGF-C polypeptide with similar kinetics.

For another assay, the system named is cornea. As to the kind of experiment: Cornea assay for angiogenic factors. Type of assay: in vivo, rat. The note with it: rat, in vivo. The source says:
Another assay for modulators of angiogenesis is an in vivo assay for assessing the effect of a suspected modulator in the presence of an ECM signaling molecule-related biomaterial, such as Cyr61, on angiogenesis is the Cornea Assay. The Cornea Assay takes advantage of the absence of blood vessels in the cornea, which in the presence of an angiogenic factor, results in the detectable development of capillaries extending from the sclera into the cornea. Friedlander et al., Science 270:1500-1502 (1995). This ingrowth of new blood vessels from the sclera can be microscopically monitored. Further, the visually determined rate of migration can be used to assess changes in the rate of angiogenesis. These cornea assays may be performed using a wide variety of animal models. Preferably, the cornea assays are performed using rats. By way of example, an assay for suspected modulators of Cyr61 using this assay is disclosed. To perform this assay, Cyr61 is initially titrated using primary capillary endothelial cells to determine effective concentrations of Cyr61. Subsequently, Cyr61, in the presence or absence of a suspected modulator, is surgically implanted into the corneas of mammalian laboratory animals, e.g., rabbits or rats. In a preferred embodiment, Cyr61 (or Cyr61 and a suspected modulator) is embedded in a biocompatible matrix, using matrix materials and techniques that are standard in the art. Subsequently, eyes containing implants are visually observed for growth of the readily visible blood vessels within the eye. Control implantations may consist of physiologically balanced buffers embedded in the same type of matrix and implanted into eyes of the same type of laboratory animal receiving the Cyr61-containing implants.
Although rats of various sizes can be used in the cornea assay, a preferred size for the rats is 150-200 g/animal. Anesthesia is induced with Methoxyflurane and is maintained for 40-60 minutes with sodium pentobarbital (50 mg/kg, delivered intraperitoneally). The eyes are gently opened and secured in place by clamping the upper eyelid with a non-traumatic hemostat. Two drops of sterile proparacaine hydrochloride (0.5%) are then placed on each eye as to effect local anesthesia. Using a suitable surgical blade such as a No. 11 Bard Parker blade, an approximately 1.5 mm incision is made approximately 1 mm from the center of the cornea. […] Once the cornea pocket is made, the spatula is removed and the distance between the limbus and base of the pocket is measured to make sure the separation is at least about 1 mm. […]
Following surgery, animals are examined daily for seven days with the aid of a stereomicroscope to check for inflammation and responses. […] During this seven day period, animals are monitored for implant position and corneal exudate. […]

The subject of a further assay is NIH 3T3 cells. The note with it: U.S. Pat. No. 5,408,040; cited from earlier work.

B1: DM: Cyr61 double mutant with both heparin-binding motifs mutated (SEQ ID NO:30 region) (protein)
chain: TCPAACHCPLEAPKCAPGVGLVRDGCGCCKVCAKQLNEDCSKTQPCDHTKGLECNFGASSTALKGICRAQSEGRPCEYNSRIYQNGESFQPNCKHQCTCIDGAVGCIPLCPQELSLPNLGCPNPRLVKVSGQCCEEWVCDEDSIKDSLDDQDDLLGLDASEVELTRNNELIAIGKGSSLKRLPVFGTEPRVLFNPLHAHGQKCIVQTTSWSQCSKSCGTGISTRVTNDNPECRLVKETRICEVRPCGQPVYSSSLKAGAACSATAKSPEPVRFTYAGCSSVAAYAPKYCGCVDGRCCTPLQTRTVKMRFRCEDGEMFSKNVMMIQSCKCNYNCPHPNEASFRLYSLFNDIHKFRD
B1: the “support of 1064SK fibroblast adhesion” value in assay [1] was “unable to support 1064SK fibroblast adhesion at any concentration tested”. Further, the “HUVEC binding” value in the assay with HUVE cells was “still mediated HUVEC binding”. In assay [2], the “heparin binding” value is “severely deficient in heparin binding”. In addition, the “NaCl concentration of elution from heparin-Sepharose/agarose” value in assay [2] (increasing salt concentrations) is on record as “up to 0.25 M NaCl”. Besides, the “induction of VEGF, MMP1, MMP3 etc.” value in assay [3] is “do not induce the expression of the above-referenced genes”.

B2: CTGF: Human ortholog of Fisp12, SEQ ID NO:8 (protein, listed as Homo sapiens)
chain: MTAASMGPVRVAFVVLLALCSRPAVGQNCSGPCRCPDEPAPRCPAGVSLVLDGCGCCRVCAKQLGELCTERDPCDPHKGLFCDFGSPANRKIGVCTAKDGAPCIFGGTVYRSGESFQSSCKYQCTCLDGAVGCMPLCSMDVRLPSPDCPFPRRVKLPGKCCEEWVCDEPKDQTVVGPALAAYRLEDTFGPDPTMIRANCLVQTTEWSACSKTCGMGISTRVTNDNASCRLEKQSRLCMVRPCEADLEENIKKGKKCIRTPKISKPIKFELSGCTSMKTYRAKFCGVCTDGRCCTPHRTTTLPVEFKCPDGEVMKKNMMFIKTCACHYNCPGDNDIFESLYYRKMYGDMA
Turning to B2, the “angiogenic effect in cornea assay” value in the assay on cornea is given as “confirm the effect of angiogenic factors”. Moreover, the “migration of NIH 3T3 and BASM cells (reported)” value in the assay with NIH 3T3 cells is given as “reported to induce the migration”.
